The supplement of paper PMC10126150
± gives the standard deviation of the averaged measurements.

Each sequence was assayed on ATP (assay: switch fluorescence ratio, 500 uM ATP over buffer (Cy3 cluster intensity, sum of 5 cycles each) (fold (ratio)); higher = stronger signal-on switching upon ATP binding; sequences stand for … in TCGTCGGCAGCGTCAGATGTGTATAAGAGACAGTTTTTTTTTTTTTTTTTTTTTTTTT…TC). Details: aptamer strand: ATP DNA aptamer (quencher-CACCTGGGGGAGTATTGCGGAGGAAGG + anchor), 100 nM annealed; ATP concentration: 500 uM.
In short: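 Cy3-labelled switching-strand clusters on a modified Illumina MiSeq flow-cell were annealed to 100 nM quencher-labelled ATP aptamer, imaged in selection buffer, then imaged after 15 min with 500 uM ATP at 22 °C. Five buffer/ATP cycles ran, with NaOH stripping and re-annealing between them. The fluorescence ratio is summed target-cycle over summed buffer-cycle Cy3 intensity per cluster, averaged per switch-domain sequence. Clusters outside 100-1000 RFU were excluded.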
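Further: ATP exposure 15 min at 22 °C before imaging.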

Point of comparison: AACGTTGGAG, switch fluorescence ratio 1.02 ± 0.019. Against it:
- GAGGGCAATC — higher, 2.76 ± 0.64
- TGGATTTTGC — within error, 0.989 ± 0.029
- ATGCTTATGG — within error, 0.994 ± 0.037
- TTGATTGACA — within error, 1 ± 0.043
- CGGGGCTGAA — lower, 0.991 ± 0.0089
- TACGTTTTTC — within error, 1.003 ± 0.0048
- GGGAAAGGTG — higher, 1.54 ± 0.11
- AAGGGCGCTC — within error, 0.975 ± 0.032
- CGGGGGGTAC — within error, 1.03 ± 0.036
- AATAGTTACT — the same, 1.0234 ± 0.00037
- GTTGTTGCTC — within error, 0.987 ± 0.04
- TCGACTATTA — within error, 1.05 ± 0.019
- GGGAGTTTGG — within error, 0.975 ± 0.027
- TTTGGCGCTG — within error, 0.984 ± 0.019
- TTGCCACTGA — the same, 1.02 ± 0.013
- AATGCGGGGA — within error, 1.03 ± 0.017
- TCTTGTGAGG — within error, 1.04 ± 0.13
- AAGTTGGGGC — within error, 0.989 ± 0.032
- AGGCGCTTAT — within error, 1.33 ± 0.55
- TGGTAGAGTT — within error, 1 ± 0.016
- TTAGCGCCGG — within error, 1.03 ± 0.034
- GGCATGCCGG — within error, 1.014 ± 0.0089
- GGTGGGTGCA — within error, 0.985 ± 0.036
- ATATTCGGCG — lower, 0.975 ± 0.022
- TGTGACAATG — within error, 0.997 ± 0.012
- GGCGGCTACG — within error, 1.003 ± 0.0035
- GCTATATTGG — within error, 0.9933 ± 0.0091
- TTAGAGTGGT — within error, 1.01 ± 0.033
- TCAACGCAGG — higher, 1.19 ± 0.065
- ACGGGGGAGG — the same, 1.02 ± 0.028
- TTTTAACGGC — within error, 0.971 ± 0.082
- TCTTACGAAG — within error, 1.27 ± 0.27
- ATTTGTTTTT — lower, 0.978 ± 0.01
- TATATGGCGT — within error, 0.989 ± 0.019
- CAGGAATAGG — within error, 1.03 ± 0.012
- AATTTTTTCC — within error, 1.41 ± 0.53
- AGCGGGAGAT — within error, 1.01 ± 0.061
- TTGCCATTGG — lower, 0.9905 ± 0.0062
- AATAAGGGGA — the same, 1.02 ± 0.077
- GATCGTACTT — higher, 1.08 ± 0.015
- AATTTTTACT — within error, 1.05 ± 0.1
- AGGGGCTTTT — within error, 0.998 ± 0.012
- ATATAGGCTA — within error, 0.995 ± 0.011
- AGTTTCGGGT — lower, 0.9636 ± 0.0082
- TTATTTGACT — within error, 1.01 ± 0.041
- TCCATGTAA — within error, 1.01 ± 0.045
- TTTACTCGGC — within error, 1.08 ± 0.16
- ATAGGAGTTC — within error, 1.03 ± 0.023
- GGTAATTATT — within error, 0.951 ± 0.067
- TGTGAATCCA — within error, 0.976 ± 0.027
- TGGAGGGGAG — lower, 0.9858 ± 0.0062
- GTTGGTGTAT — lower, 0.9913 ± 0.009
- TAGCTAGTCG — within error, 1.01 ± 0.039
- TTTGATCGTT — within error, 1.01 ± 0.011
- TAGTTGTTTT — within error, 1 ± 0.04
- GGGTCCCTTG — within error, 1 ± 0.026
- TTATGGTCGG — lower, 0.984 ± 0.016
- TCCCCCGCCG — within error, 1.09 ± 0.12
- AAATTGCTGT — within error, 1.012 ± 0.0069
- TGCTTTTTAA — within error, 1.03 ± 0.063
- AACTGGGGTT — lower, 0.9868 ± 0.0035
- ATAGTGGTGA — within error, 1.03 ± 0.048
- AGCGCCAGGG — higher, 1.13 ± 0.035
- AGTTTGTGAC — within error, 0.989 ± 0.029
- GGACATGGGT — within error, 1 ± 0.019
- GATTTACGAT — within error, 1.026 ± 0.0019
- CTGGTTTGCC — within error, 0.974 ± 0.048
- GTTAGAGTTT — within error, 0.988 ± 0.03
- AGCTACCTTA — higher, 1.09 ± 0.05
- TTTGGGGAGC — within error, 0.986 ± 0.045
- CATTTTAGGC — within error, 1.04 ± 0.067
- GAGACCCGTG — lower, 0.9867 ± 0.0059
- CGGGTCGGTT — within error, 1.07 ± 0.1
- ATCAATTTCT — lower, 0.974 ± 0.014
- TTCTTGGAAT — within error, 0.969 ± 0.049
- CGTTATTTCT — within error, 1.01 ± 0.052
- GGGAGGGTGG — within error, 0.996 ± 0.06
- GCGTAGGGG — lower, 0.967 ± 0.028
- ATGATGCGTG — lower, 0.981 ± 0.015
- GGGTGAGGGA — within error, 1.01 ± 0.035
- CGATGTTTTC — within error, 1.03 ± 0.073
- GGGGTTATGG — within error, 0.984 ± 0.041
- GAATGCCGGG — within error, 1.03 ± 0.054
- AGAGGTAGTA — the same, 1.017 ± 0.0066
- TTTGGACTAT — within error, 1.012 ± 0.0038
- AAGGGGCCGA — within error, 0.994 ± 0.034
- GCAGTAGTTA — within error, 1.03 ± 0.013
- AGGTTATGTG — within error, 0.999 ± 0.037
- CGAGCGGGGG — within error, 1.01 ± 0.047
- CTTACGGGTC — lower, 0.9901 ± 0.005
- GGGGGAGCTA — within error, 1 ± 0.032
- GGGATTCGGA — lower, 0.9499 ± 0.0088
- ACGGGGTGTC — within error, 1.08 ± 0.089
- CCTATGCAGT — higher, 5.33 ± 0.3
- TGAGAAAGGG — lower, 0.982 ± 0.0019
- AGTATTCAGG — within error, 1 ± 0.027
- TTTTAAAGTA — within error, 1.01 ± 0.031
- AATTTTGGAC — within error, 1.01 ± 0.017
- ATGATTGATG — the same, 1.02 ± 0.019
